Measurements published in publication PMC12535091.

Target: Human β2GPI domain deletion mutant DI-DIV (human)
Assay: ELISA; β2GPI or domain deletion mutants coated on Maxisorb plates at 1 µM overnight at 4 °C; Apo E-Biotin 50 nM, 1 h at RT; streptavidin-HRP, OD 450; % of binding to full length β2GPI

A % binding of 42.5% was found for “Human Apo E2, biotinylated (from UniProt P02649 19-317) (natural protein)” in this work.
